In US20130266582A1 (YEDA RESEARCH AND DEVELOPMENT, published 2013):

B1: Flag-DAPk (N-terminal Flag-tagged human full-length death-associated protein kinase) (enzyme)
chain: MTVFRQENVDDYYDTGEELGSGQFAVVKKCREKSTGLQYAAKFIKKRRTKSSRRGVSREDIEREVSILKEIQHPNVITLHEVYENKTDVILILELVAGGELFDFLAEKESLTEEEATEFLKQILNGVYYLHSLQIAHFDLKPENIMLLDRNVPKPRIKIIDFGLAHKIDFGNEFKNIFGTPEFVAPEIVNYEPLGLEADMWSIGVITYILLSGASPFLGDTKQETLANVSAVNYEFEDEYFSNTSALAKDFIRRLLVKDPKKRMTIQDSLQHPWIKPKDTQQALSRKASAVNMEKFKKFAARKKWKQSVRLISLCQRLSRSFLSRSNMSVARSDDTLDEEDSFVMKAIIHAINDDNVPGLQHLLGSLSNYDVNQPNKHGTPPLLIAAGCGNIQILQLLIKRGSRIDVQDKGGSNAVYWAARHGHVDTLKFLSENKCPLDVKDKSGEMALHVAARYGHADVAQLLCSFGSNPNIQDKEEETPLHCAAWHGYYSVAKALCEAGCNVNIKNREGETPLLTASARGYHDIVECLAEHGADLNACDKDGHIALHLAVRRCQMEVIKTLLSQGCFVDYQDRHGNTPLHVACKDGNMPIVVALCEANCNLDISNKYGRTPLHLAANNGILDVVRYLCLMGASVEALTTDGKTAEDLARSEQHEHVAGLLARLRKDTHRGLFIQQLRPTQNLQPRIKLKLFGHSGSGKTTLVESLKCGLLRSFFRRRRPRLSSTNSSRFPPSPLASKPTVSVSINNLYPGCENVSVRSRSMMFEPGLTKGMLEVFVAPTHHPHCSADDQSTKAIDIQNAYLNGVGDFSVWEFSGNPVYFCCYDYFAANDPTSIHVVVFSLEEPYEIQLNQVIFWLSFLKSLVPVEEPIAFGGKLKNPLQVVLVATHADIMNVPRPAGGEFGYDKDTSLLKEIRNRFGNDLHISNKLFVLDAGASGSKDMKVLRNHLQEIRSQIVSVCPPMTHLCEKIISTLPSWRKLNGPNQLMSLQQFVYDVQDQLNPLASEEDLRRIAQQLHSTGEINIMQSETVQDVLLLDPRWLCTNVLGKLLSVETPRALHHYRGRYTVEDIQRLVPDSDVEELLQILDAMDICARDLSSGTMVDVPALIKTDNLHRSWADEEDEVMVYGGVRIVPVEHLTPFPCGIFHKVQVNLCRWIHQQSTEGDADIRLWVNGCKLANRGAELLVLLVNHGQGIEVQVRGLETEKIKCCLLLDSVCSTIENVMATTLPGLLTVKHYLSPQQLREHHEPVMIYQPRDFFRAQTLKETSLTNTMGGYKESFSSIMCFGCHDVYSQASLGMDIHASDLNLLTRRKLSRLLDPPDPLGKDWCLLAMNLGLPDLVAKYNTSNGAPKDFLPSPLHALLREWTTYPESTVGTLMSKLRELGRRDAADFLLKASSVFKINLDGNGQEAYASSCNSGTSYNSISSVVSR
notes: bait in anti-Flag immunoprecipitation; also called full length DAPk; not shown: N-terminal Flag tag
B2: DAP1-Flag (C-terminal Flag-tagged death-associated protein 1) (other, UniProt P51397 2-102, looked up)
chain: SSPPEGKLETKAGHPPAVKAGGMRIVQKHPHTGDTKEEKDKDDQEWESPSPPKPTVFISGVIARGDKDFPPAAAQVAHQKPHASMDKHPSPRTQHIQQPRK
notes: Irrelevant Flag-tagged control protein; not shown: C-terminal Flag tag

Columns and labels:
[1] = molecular target: the molecule itself; test: analytical size exclusion chromatography (Superdex 200) of immunopurified Flag-DAPk
Excerpt: Immunopurified Flag-DAPk was loaded onto an analytical Superdex™ 200 10/300 (GE Healthcare) gel-filtration column equilibrated with TBS. The eluting protein was detected by UV absorbance at 280 nm. Fractions were collected using the AKTA Prime fraction collector and analyzed by Western blot with anti-Flag antibodies. The migration position of the fractions containing Flag-DAPk was assigned relative to the migration position of Gel Filtration Calibration HMW standards (GE Healthcare) on the same column.
It elutes in two clearly defined peaks corresponding to ˜640 kDa and ˜320 kDa (FIG. 1D). […] Furthermore, the absence of a peak at the 160 kDa size range excluded the existence of monomers under native conditions. Fractions were collected at indicated elution points and submitted to western blot analysis, confirming DAPk identity at the selected peaks (FIG. 1E).

[2] = molecular target: T1, HA-DAPk (N-terminal hemaglutinin-tagged human full-length death-associated protein kinase) (human, UniProt P53355 1-1430); test: co-immunoprecipitation with anti-Flag beads from co-transfected HEK 293T cells, western blot (FIG. 2B)
T1 construct: also called HA-DAPk (WT); DAPk WT; not shown: N-terminal HA (hemaglutinin) tag
Description: FIG. 2A, Schematic representation of the different DAPk constructs utilized for mapping DAPk homo-oligomerization. The indicated domains: Kinase domain (KD); Ca⁺²/Calmodulin binding region (CaM); Ankyrin repeats (AK); P-Loop; Ras of complex proteins domain (ROC); C-terminal of ROC domain (COR); Death domain (DD); and Serine (Ser) rich tail. […] Immunoprecipitation with anti-Flag beads (IP-α-Flag) was performed and immuno-complexes and cell extracts were analyzed by western blot. FIG. 2C, Cells co-transfected with Flag-DAPk and one of the different HA-tagged DAPk constructs, namely HA-DAPk (WT), HA-ΔROC—a deletion between amino acids 667-954; HA-ΔKinase—a N-terminal deletion (1-285); and ΔROC/ΔKinase—deletion of both KD (1-285) and ROC domain (667-954). Immunoprecipitation and western blot were performed as in B. FIG. 2D, Cells co-transfected with Flag-ROC and HA-ROC; HA-ROC and Flag-ROC-Δ-P-loop; Flag-ROC and HA-DAPk (WT); Flag-ROC-Δ-P-Loop and HA-DAPk (WT); or HA-ROC and DAP1-Flag.
Immunoprecipitation with anti-Flag beads (IP-α-Flag) was performed and immuno-complexes and cell extracts were analyzed by western blot. […] Thus, ROC fragment by itself is sufficient to bind the full length DAPk. Also the ROC fragments interacted with each other (FIG. 2D). […] Together the experiments in FIG. 2B-D established the role of the ROC domain in mediating homo-oligomerization.

Binder | binding result [1] | binding result [2]
B1 | binds | –
B2 | – | no binding
